Changes are numbered by the printed parent chain. Names and notes keep the numbering of the source. One block for each binder: values may come before it.
Key:
[1] = molecular target: T1, MSLN on OVCAR8 (MSLN^high) and other cancer cell lines (UniProt Q13421 296-598); experiment: flow cytometry on OVCAR8 cells, detected with A647-labelled anti-human Fc mAb
T1 construct: whole, on cells; Endogenous surface MSLN; also called MSLN^high OVCAR8 cells; MSLN^low SKOV3 and HT29 cells
Experimental: Next, the effect of MSLN binding affinity was investigated. 100,000 OVCAR8 (MSLN^high) cells were treated with the indicated concentrations of the indicated test articles. […] Further, XENP32852 and XENP32853 which differ only in CD3 binding affinity have identical binding to OVCAR8 cells confirming that avid binding is due to the MSLN binding domain.

[2] = molecular target: T2, human MSLN antigen (human, UniProt Q13421 296-580, limits assumed); experiment: Octet BLI on human MSLN antigen (Example 2B(a)); KD quoted in the FIG. 35 legend
T2 construct: Soluble antigen for BLI; also called Mesothelin; MESO
Text: (§1) Variants of MESO-C were engineered by introducing point substitutions into the variable heavy region (VH) and the variable light region (VL) to generate 11 VH variants and 16 VL variants (sequences for which are depicted in FIG. 18 as H1.1-H1.13 and in FIG. 19 as L1.1-L1.18). An additional 4 VL variants were generated by combining useful point substitutions (sequences for which are depicted in FIG. 19 as L1.19-L1.22). WT and variant variable heavy regions were paired with WT and variant variable light regions to generate variant variable regions (Fvs) which were produced in the context of anti-MSLN×anti-CD3 bispecific antibodies. The bispecific antibodies were screened for MSLN binding affinity using Octet®, a BioLayer Interferometry (BLI)-based method. Experimental steps for Octet® generally include the following: Immobilization (capture of ligand to a biosensor); Association (dipping of ligand-coated biosensors into wells containing the analyte); and Dissociation (returning of biosensors to well containing buffer). In an initial screening, anti-human Fc sensors were used to capture the bispecific mAbs and dipped into human MSLN antigen (one concentration to screen large library). The resulting dissociation constant of illustrative variants (KD), association rate (kₐ), dissociation rate (kd), as well as sensorgram response are depicted in FIG. 20. In further screening of favorite variants identified in the initial screen (and combination variants), bispecific mAbs were dipped into multiple concentrations of human MSLN antigen, data for which are depicted in FIG. 21 (from various screens).

[3] = molecular target: T2, human MSLN antigen; experiment: Octet BLI; bsAb on anti-human Fc sensor, human MSLN as analyte, one concentration; design: Response: unit not given here
Text: as §1

[4] = molecular target: T3, cyno MSLN (Macaca fascicularis (cynomolgus)); experiment: Octet BLI; bsAb on anti-human Fc sensor, cyno MSLN as analyte, one concentration
T3 construct: soluble antigen for Octet; also called cynomolgus MSLN

T2 sequence (Q13421 other isoform, or with tags, fused parts or gaps limits assumed): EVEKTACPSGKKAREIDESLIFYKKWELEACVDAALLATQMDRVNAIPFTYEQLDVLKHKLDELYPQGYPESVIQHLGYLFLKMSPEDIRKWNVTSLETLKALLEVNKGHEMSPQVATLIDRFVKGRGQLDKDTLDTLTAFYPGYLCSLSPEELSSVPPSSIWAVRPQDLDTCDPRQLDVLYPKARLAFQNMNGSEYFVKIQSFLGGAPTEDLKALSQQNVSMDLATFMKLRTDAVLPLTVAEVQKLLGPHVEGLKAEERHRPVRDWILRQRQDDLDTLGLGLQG
T1 sequence (Q13421 other isoform, or with tags, fused parts or gaps limits assumed): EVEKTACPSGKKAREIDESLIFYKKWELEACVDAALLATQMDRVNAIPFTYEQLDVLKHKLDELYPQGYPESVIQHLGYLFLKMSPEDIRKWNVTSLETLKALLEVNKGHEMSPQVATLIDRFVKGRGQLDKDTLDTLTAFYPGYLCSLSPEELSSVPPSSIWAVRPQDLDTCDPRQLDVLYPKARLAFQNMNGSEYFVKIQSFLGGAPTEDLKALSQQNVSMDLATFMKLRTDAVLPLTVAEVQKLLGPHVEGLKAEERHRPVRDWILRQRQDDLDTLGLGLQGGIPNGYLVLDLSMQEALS

EC50 (read off the curve) [1]: ~0.07 µg/mL | Kd [2]: 280 pM
B1: XENP31697 (bispecific antibody)
heavy: QVQLVQSGAEVKKPGASVKVSCKASGYTFTSYWMHWVRQAPGQGLEWMGMIHPNSDNTIYYEKFQGRVTMTVDKSISTAYMELSRLRSDDTAVYYCAIIITPVVPKFDYWGQGTLVTVSSASTKGPSVFPLAPSSKSTSGGTAALGCLVKDYFPEPVTVSWNSGALTSGVHTFPAVLQSSGLYSLSSVVTVPSSSLGTQTYICNVNHKPSDTKVDKKVEPKSCDKTHTCPPCPAPPVAGPSVFLFPPKPKDTLMISRTPEVTCVVVDVKHEDPEVKFNWYVDGVEVHNAKTKPREEEYNSTYRVVSVLTVLHQDWLNGKEYKCKVSNKALPAPIEKTISKAKGQPREPQVYTLPPSREEMTKNQVSLTCDVSGFYPSDIAVEWESDGQPENNYKTTPPVLDSDGSFFLYSKLTVDKSRWEQGDVFSCSVMHEALHNHYTQKSLSLSPGK
scFv-Fc: not shown
light: DIVMTQSPDSLAVSLGERATINCKASHDVGTSVAWYQQKPGQSPKLLIYWASTRHTGVPDRFTGSGSGTDFTLTISSLQAEDVAVYFCQQYSSYPLTFGAGTKLEIKRTVAAPSVFIFPPSDEQLKSGTASVVCLLNNFYPREAKVQWKVDNALQSGNSQESVTEQDSKDSTYSLSSTLTLSKADYEKHKVYACEVTHQGLSSPVTKSFNRGEC
notes: 1+1 Fab-scFv-Fc anti-MSLN x anti-CD3

Kd [3]: 795 pM | Response [3]: 1.17 | koff [3]: 0.000198 s⁻¹ | kon [3]: 249000 M⁻¹ s⁻¹ | Kd [4]: 700 pM | Response [4]: 1.11 | koff [4]: 0.000166 s⁻¹ | kon [4]: 238000 M⁻¹ s⁻¹
B2: XENP32558 (bispecific antibody)
Fab-Fc heavy chain (anti-MSLN VH): B1 heavy with K106R
scFv-Fc heavy chain (anti-CD3 H1.30_L1.47): not shown
light chain (anti-MSLN VL): B1 light
notes: 1+1 Fab-scFv-Fc bsAb; VH K100bR, VL WT (Kabat); also called MESO-C H1.9_L1

Kd [3]: 283 pM | Response [3]: 1.11 | koff [3]: 0.000161 s⁻¹ | kon [3]: 569000 M⁻¹ s⁻¹ | Kd [4]: 223 pM | Response [4]: 1.04 | koff [4]: 0.000128 s⁻¹ | kon [4]: 575000 M⁻¹ s⁻¹
B3: XENP32559 (bispecific antibody)
Fab-Fc heavy chain (anti-MSLN VH): B1 heavy
scFv-Fc heavy chain (anti-CD3 H1.30_L1.47): not shown
light chain (anti-MSLN VL): B1 light with A25S
notes: 1+1 Fab-scFv-Fc bsAb; VH WT, VL A25S (Kabat); also called MESO-C H1_L1.1

Kd [3]: 135 pM | Response [3]: 0.978 | koff [3]: 9.35e-05 s⁻¹ | kon [3]: 693000 M⁻¹ s⁻¹ | Kd [4]: 189 pM | Response [4]: 0.867 | koff [4]: 0.000125 s⁻¹ | kon [4]: 660000 M⁻¹ s⁻¹
B4: XENP32569 (bispecific antibody)
heavy: B1 heavy with N54Q
scFv-Fc: not shown
light: B1 light with D28S
notes: VH N53Q, VL D28S (Kabat); also called MESO-C H1.5_L1.3; copies: 1 + 1 + 1

Kd [3]: 286 pM | Response [3]: 1.11 | koff [3]: 0.000169 s⁻¹ | kon [3]: 590000 M⁻¹ s⁻¹ | Kd [4]: 255 pM | Response [4]: 1 | koff [4]: 0.000151 s⁻¹ | kon [4]: 592000 M⁻¹ s⁻¹
B5: XENP32565 (bispecific antibody)
Fab-Fc heavy chain (anti-MSLN VH): B1 heavy
scFv-Fc heavy chain (anti-CD3 H1.30_L1.47): not shown
light chain (anti-MSLN VL): B1 light with H55E
notes: 1+1 Fab-scFv-Fc bsAb; VH WT, VL H55E (Kabat); also called MESO-C H1_L1.7

Kd [3]: 633 pM | Response [3]: 1.03 | koff [3]: 0.000383 s⁻¹ | kon [3]: 605000 M⁻¹ s⁻¹ | Kd [4]: 1200 pM | Response [4]: 0.948 | koff [4]: 0.000762 s⁻¹ | kon [4]: 634000 M⁻¹ s⁻¹
B6: XENP32560 (bispecific antibody)
Fab-Fc heavy chain (anti-MSLN VH): B1 heavy
scFv-Fc heavy chain (anti-CD3 H1.30_L1.47): not shown
light chain (anti-MSLN VL): B1 light with H27Q
notes: 1+1 Fab-scFv-Fc bsAb; VH WT, VL H27Q (Kabat); also called MESO-C H1_L1.2

Response [3]: 0.107 | Response [4]: 0.0728
B7: XENP32568 (bispecific antibody)
Fab-Fc heavy chain (anti-MSLN VH): B1 heavy
scFv-Fc heavy chain (anti-CD3 H1.30_L1.47): not shown
light chain (anti-MSLN VL): B1 light with Y94T
notes: 1+1 Fab-scFv-Fc bsAb; VH WT, VL Y94T (Kabat); also called MESO-C H1_L1.10

Kd [3]: 86.1 pM | Response [3]: 0.952 | koff [3]: 5.68e-05 s⁻¹ | kon [3]: 660000 M⁻¹ s⁻¹ | Kd [4]: 29.7 pM | Response [4]: 0.849 | koff [4]: 2.01e-05 s⁻¹ | kon [4]: 676000 M⁻¹ s⁻¹
B8: XENP32564 (bispecific antibody)
Fab-Fc heavy chain (anti-MSLN VH): B1 heavy
scFv-Fc heavy chain (anti-CD3 H1.30_L1.47): not shown
light chain (anti-MSLN VL): B1 light with V33L
notes: 1+1 Fab-scFv-Fc bsAb; VH WT, VL V33L (Kabat); also called MESO-C H1_L1.6

Response [3]: 0.898 | koff [3]: 0.00672 s⁻¹ | kon [3]: 527000 M⁻¹ s⁻¹ | Kd [4]: 13100 pM | Response [4]: 0.817 | koff [4]: 0.00713 s⁻¹ | kon [4]: 543000 M⁻¹ s⁻¹ | Kd [2]: ~12800 pM
B9: XENP32563 (bispecific antibody)
heavy: B1 heavy
scFv-Fc: not shown
light: B1 light with S32Y
notes: 1+1 Fab-scFv-Fc
